Source: PMC12653191 (Journal of Fungi, 2025)

Target: T1, Candida glabrata Pbn1 (C. glabrata ATCC 2001, UniProt Q6FX62 1-416, N-glycosylation at N35, N319 and N365)
T1 construct: Pbn1, auxiliary subunit of GPI mannosyltransferase I, Candida glabrata ATCC 2001, UniProt Q6FX62, full length (416 amino acids); residues 2-408 are modelled in the structure; also called auxiliary subunit of GPI-MT-I; source: S. cerevisiae INVSc1, co-expressed with Gpi14, purified (Strep-Tactin, SEC); not shown: Twin-Strep II, N-terminal, kept
T1 sequence (looked up): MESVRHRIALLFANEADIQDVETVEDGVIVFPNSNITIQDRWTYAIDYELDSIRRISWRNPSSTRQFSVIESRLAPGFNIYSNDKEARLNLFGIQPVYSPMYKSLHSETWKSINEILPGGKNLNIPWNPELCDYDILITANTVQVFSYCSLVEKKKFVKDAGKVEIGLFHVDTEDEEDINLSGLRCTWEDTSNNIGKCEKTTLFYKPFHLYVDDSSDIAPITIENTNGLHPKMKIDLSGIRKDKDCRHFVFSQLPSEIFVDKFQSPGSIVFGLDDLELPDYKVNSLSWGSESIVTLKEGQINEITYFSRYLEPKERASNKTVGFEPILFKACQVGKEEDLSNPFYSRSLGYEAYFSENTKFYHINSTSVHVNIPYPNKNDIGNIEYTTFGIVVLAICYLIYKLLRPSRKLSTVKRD
Assay: cryo-EM structure; Gpi14-Pbn1 complex co-expressed in S. cerevisiae, purified by Strep-Tactin on Pbn1 and SEC in 20 mM Hepes pH 7.4, 150 mM NaCl, 0.02% GDN; ~22 mg/mL; endogenous Dol-P-Man bound
Conditions: both partners purified

B1: Candida glabrata Gpi14 (enzyme, C. glabrata ATCC 2001, UniProt Q6FXQ5 1-431, looked up)
chain: MFKLGTIGLLSLAVLLRIAFFLFGVYQDEHFTVKYTDIDYQVFNDAAWFVAHRKSPYNRDTYRYTPLLSWLLLPNHMIPWFHFGKLIFVLCDLATGVLILQMLKKLKSKYRYGTDRMTIMAAIWLLNPMVITISTRGNAESVLCFLILSFLYCFLCEQYLLGGLLFGLSIHFKIYPIIYALPIAIYVAAAHYNKTQSVFKSSFKLFLVGFSTLIVLILLTVFMYMLYGDKFIDQTYLYHIYRTDHRHNFSVWNMLLYFNSALPKTSELSKFVFLPQMIIVLAISLTQLRRPSSFPLLCNVLFLETFAFVTFNKVCTSQYFIWYLIFLPFVLYNTRISMRRGIVMLVVWVATQALWLRQGYLLEFEGQNVFYPGLFCASVGFFVSNAWILGQFIEDTIIQNDYVYRIEPSESRSKDSAVIDKPAIAKTEKAE
notes: Gpi14, GPI mannosyltransferase I catalytic subunit, Candida glabrata ATCC 2001, UniProt Q6FXQ5, full length (431 amino acids); residues 2-408 are modelled in the structure; also called catalytic subunit of GPI-MT-I; source: S. cerevisiae INVSc1, co-expressed with Pbn1, purified (Strep-Tactin via Pbn1, SEC)
Question: For B1, which “stoichiometry N” value is on record?
Answer: 1
